This note sets out measurements from patent publication US20260263566A1 (REALTA, published 2026).

Ends that are not written are not given here. dPEG24 = 24 PEG moieties, at the C-terminus

In the experiment the target is T1, Human neutrophil myeloperoxidase (MPO), purified (human, UniProt P05164 165-745, limits assumed).
T1 sequence (looked up): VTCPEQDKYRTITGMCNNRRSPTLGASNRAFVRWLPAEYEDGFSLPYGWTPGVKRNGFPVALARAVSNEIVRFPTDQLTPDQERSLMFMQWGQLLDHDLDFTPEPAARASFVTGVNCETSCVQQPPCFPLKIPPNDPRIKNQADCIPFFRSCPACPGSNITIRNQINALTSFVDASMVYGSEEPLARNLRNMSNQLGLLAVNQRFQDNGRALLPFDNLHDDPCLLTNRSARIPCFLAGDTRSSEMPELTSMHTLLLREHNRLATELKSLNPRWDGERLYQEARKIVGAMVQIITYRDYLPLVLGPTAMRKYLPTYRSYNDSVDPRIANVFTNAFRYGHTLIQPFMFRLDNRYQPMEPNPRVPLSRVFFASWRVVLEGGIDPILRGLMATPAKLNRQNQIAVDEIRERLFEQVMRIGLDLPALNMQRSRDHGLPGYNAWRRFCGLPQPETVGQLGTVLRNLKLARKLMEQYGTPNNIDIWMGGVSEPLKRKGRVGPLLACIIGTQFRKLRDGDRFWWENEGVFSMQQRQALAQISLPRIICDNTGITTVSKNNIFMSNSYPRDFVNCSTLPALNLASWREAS
The experiment can be described thus: cell-based or functional assay.

IALILEPICCQERAA-dPEG24 (cysteine pairing not given here) [PA-dPEG24 (IALILEPICCQERAA-dPEG24)]: the “peroxidase activity by TMB in peritoneal wash supernatant (rat; 0.1 mg purified MPO IP, then 20 mg PA-dPEG24 IP, 2 hours)” value came to 5 fold decrease.
